Test results published in paper PMC4579573, “Higher -Order Assembly of BRCC36–KIAA0157 Is Required for DUB Activity and Biological Function” (Molecular cell, 2015).

B1: zebrafish BRISC complex (complex)
chain 1: MAVNAVHLESDAFLVCMNHALSTEKEEVMGLCIGEVDTNRIVHIHSVIILRRSDKRKDRVEISPEQLSAASTEAERLAEMTGRPMRVVGWYHSHPHITVWPSHVDVRTQAMYQMMDQGFVGLIFSCFIEDKNTKTGRVLYTCFQSVQAQKGSEYERIEIPIHVVPHEAIGKVCLESAVELPRILCQEEQDTYRRIHSLTHLDPITKIHNGSVFTKNLCSQMSAISGPLLQWLEDRLEQNKQSIITLQKEKELLTQELAAL
chain 2: not shown
chain 3: MNSLSPELALSRISPELRPLLCSIVRNGRVGLDSSSCLRITDLKSGCTSLMPGPCCDRFKLHIPYAGETLKWDIIFNARDPELPPDFIFGEDADFLPEPSELPNLVSWDSGKPECLLLLVKEMLQQYHQYQCQRLRDSSRLLFEYDSLLEDPNYGRNMEIYAGRKNSWTGEFSARFLLKLPVDFSNIPIYLLKDTALDPGEDVALLSVSFEDAEATQVFPKLYLSPSIEHALGGSSALHIPAFPSGGCLIDYVPQVCQLLTNKVQYVIQGYHKRREYIAAFLSHFGMGVVEYDAVGFTKLTLLLMWKDFCFLVHVDLPLYFPRDQPTLTFQSIYHFTSSGQLYSQVQKSYPYSPRWDGNEMAKRAKAYFKSFIPQFQEGAFANGKL
chain 4: METTEPGQADGEERMMDLRPRTRSNPEGAEDRRSSTGSLNSSLPSAPQPAVGSRVEGEGEAASSDSPPVSATAIAATASVPVAAVGNTTTTNTASLPAMSPAVKERPKPSQPTMPTQIPPSAELHLRAPRVNCPEKVIICLDLSEEMSLQKLESINGSKTNALNISQKMIEMFVRTKHKIDKRHEFALVVVNDDAMWLSGFTSDPRELCSCLYDLETNVCESFNLEDLFNVILQKIELPQMENIQTIPPPFVVRTLLVFSRHAGMLQFNPSDAVKKMLQSPYFFFDVVFLHNGTEEQTEDTSWKDVYASFCELDTKGMCYRFEVSLCGPAIELHNCMAKLLCHPLQRPFQSHASYSLLEDEDTLENEATV
B2: Dr BRCC36–KIAA0157 binary complex (complex)
chain 1: B1 chain 1
chain 2: not shown
B3: C. floridanus BRISC complex (complex)
chain 1: MDDSSLQKVELQTDVYMVCLQHALSTENFEVMGLLIGNFACGIAKISAVIILRRLDKKKDRVEISSEQLLKAAAEAERLTVELNRPMRVLGWYHSHPHITVCPSHVDVRTQATYQTMDHSFVGLIFSVFSEGKESKEHEIFLNCFQSDNGEATEIPLEIVHTPDISDRCLRTMTDLSKILVQEEEDMAEACKDHPDVLASIHNNAVRTRALIHITDIITKPLVQTFEKRIALNKLRATHLQRQLQELQKMCNG
chain 2: MADSDLLVTISGAALSLLFFENVRSVGNQMGFLLGEALEFIVKTYTDSDNQVETVKIHINVEAIVTCPLADLLHDSTNHINKEKLKDFVRDKSKQVIGWFCFRRNTTNLTLTLKDKLLHKQFASHFSGVNGCKEDFFLTCLLNASTSETSGTHKFRHVFLRHNKRGMFEPISLKINNLGDDASRHDGSDYKPTPVRKSTRTPDSFTKLIESLNLDVARIDGLDSAMLIQKAAEHHLMSLIPKVCESDLEVAELEKQVHELKIKIATQQLAKRLKINGENCDRISKASKDNCFSEKIDSSKKNEVRIGDDACLQREHIPSCTQSVGPNNRTVCRNTAACIAKSAEKSRRAGRSNLQESGNQQQETQNFFTNSRRSIPEIATESICQEGSEISMGRGRGSGRGSHEFTPGMKKIRRTPGTSHMHSSRERSTTPPEQDFSDAECPISSPVLRSYSQVTKKTNLDKCNSMAPLDI
chain 3: MLNQQHPLLSTIDSYIEPLLKRVLQTKRLGVCCGLIKLDSVSSSCNKSKNDCFKLSIPYAGEHLVWSVLFDSQYPEMGPDFIFNDQSFLADPDINTLSTWIPSLTKWNPNDIDALLNVLSELLLYYKEHQLHLLGKQGDRLQFEYSTLVGETEISREDIEVIMLPLGTKPTEARFLIRIVMDYSRLPPRINKSQNDEAMLIIMFYGPDWNRIIPQLYLSKTLEDIFGGPESLHIPPFPSSKYLMDYVPEVKKFIDEKIHNVVQSFESRKSFITVLIVSQRGSILEYDAIEFNWISMLLEHRDFHFLIHFHLPSTFPKEKPQITLQSVYHMTSQGTLYKEVLDDTPYSPRWQIILMVDKLLTYIMENAVQKFQANSMKNRF
B4: CfBRCC36 (enzyme, C. floridanus, UniProt E2AXC7 1-253, looked up)
chain: B3 chain 1
notes: BRCC36 of Camponotus floridanus, residues 1-253; The crystal of PDB 5CW4 held seleno-methionine protein; also called C. floridanus BRCC36; B36; source: insect cells (MultiBac expression system), co-expressed with its partners, purified

Legend:
[1] = biological target: the molecule itself; experiment: SEC-MALS; complexes and subcomplexes purified from insect cells; size exclusion chromatography coupled to multi-angle light scattering (Figures S1B-E and S8E-G)
[2] = biological target: the molecule itself; experiment: crystal structure; CfBRCC36–KIAA0157ΔC, seleno-methionine-SAD, two heterodimers in the asymmetric unit, 2.55 Å

Protein | stoichiometry N [1] | binding result [2]
B1 | 2 | 
B2 | 2 | 
B3 | 2 | 
B4 |  | binds
